From patent publication US20140087995A1 (published 2014)
Numbered stars: 1 amine (or outer) side, 2 acyl side, 3 side chain; on linkers, the order of the positions; unused ones are H or OH. Bridge positions count the residues as written; N and C are the ends. Side chains are listed from the residue outwards. Ends that are not written are not given here. * marks the point of attachment. C20 diacid = O=C(O)CCCCCCCCCCCCCCCCCCC(=O)*; γGlu = O=C(O)[C@H](CCC(=O)[*:2])N[*:1]; AEEA = NCCOCCOCC(=O)O

T1: human amylin receptor (amylin 3(a) receptor: human calcitonin receptor plus RAMP-3) (human, UniProt P30988 25-474; O60896 24-148)
T1 construct: whole, on cells; functional assay (II)a used the whole cells; also called hAmylin-R; hAmylinR
T1 sequence (looked up) 1: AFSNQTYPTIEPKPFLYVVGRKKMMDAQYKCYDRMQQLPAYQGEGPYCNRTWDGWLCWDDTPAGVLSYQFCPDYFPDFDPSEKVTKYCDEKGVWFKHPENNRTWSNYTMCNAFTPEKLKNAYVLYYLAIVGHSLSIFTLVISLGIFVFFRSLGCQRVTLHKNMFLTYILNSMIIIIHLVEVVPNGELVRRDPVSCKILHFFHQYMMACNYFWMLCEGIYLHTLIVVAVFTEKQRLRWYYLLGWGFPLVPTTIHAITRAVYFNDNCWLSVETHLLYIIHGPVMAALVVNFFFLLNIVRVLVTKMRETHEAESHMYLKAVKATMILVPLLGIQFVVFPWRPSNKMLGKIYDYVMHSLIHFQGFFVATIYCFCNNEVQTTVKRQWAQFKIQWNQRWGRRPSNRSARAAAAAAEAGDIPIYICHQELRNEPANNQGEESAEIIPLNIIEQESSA
T1 sequence (looked up) 2: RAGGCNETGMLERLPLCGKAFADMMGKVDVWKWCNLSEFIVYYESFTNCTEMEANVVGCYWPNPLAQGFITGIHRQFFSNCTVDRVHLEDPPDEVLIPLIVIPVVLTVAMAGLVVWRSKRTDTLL

T2: human calcitonin receptor (human, UniProt P30988 25-474)
T2 sequence (looked up): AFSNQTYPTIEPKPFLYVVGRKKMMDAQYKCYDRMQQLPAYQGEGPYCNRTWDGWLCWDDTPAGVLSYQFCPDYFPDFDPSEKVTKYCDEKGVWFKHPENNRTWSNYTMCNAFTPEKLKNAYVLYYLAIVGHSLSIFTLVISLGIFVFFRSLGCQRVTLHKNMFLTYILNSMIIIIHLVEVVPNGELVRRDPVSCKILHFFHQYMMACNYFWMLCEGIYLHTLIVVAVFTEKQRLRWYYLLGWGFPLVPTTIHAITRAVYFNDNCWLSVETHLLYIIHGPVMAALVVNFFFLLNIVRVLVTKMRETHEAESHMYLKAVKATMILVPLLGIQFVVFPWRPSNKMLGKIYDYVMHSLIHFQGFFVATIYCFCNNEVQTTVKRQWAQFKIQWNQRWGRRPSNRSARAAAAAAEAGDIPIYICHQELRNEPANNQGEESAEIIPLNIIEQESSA


What was measured:
[1] = target: T1, human amylin receptor (amylin 3(a) …); assay: SPA competition binding, displacement of 125I-rat amylin, membranes of BHK amylin 3(a)/CRE-luc cells
Method in brief: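 SPA beads with BHK Amylin 3(a)/CRE-luc cell membranes (35 ng/μL final) in 50 mM Hepes pH 7.4, 1 mM CaCl2, 5 mM MgCl₂, 0.1% OA, 0.02% Tween20.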

[2] = target: T2, human calcitonin receptor; assay: cell-based or functional assay
[3] = target: T1, human amylin receptor (amylin 3(a) …); assay: cell-based or functional assay

Binder	IC50 [1] [nM]	hCTR funct. EC50 (pM) [2] [pM]	Ratio hCT/hAmylin funct. [3]	hAmylin-R funct. EC50 (pM) [3] [pM]
K([γGlu-C20 diacid])RCNTATCATQRLANFLRHSSPNFGAIPSSTNVGSHTY-NH2 (disulfide 3-8; N-terminus assumed; SMILES CC[C@H](C)[C@H](NC(=O)[C@H](C)NC(=O)CNC(=O)[C@H](Cc1ccccc1)NC(=O)[C@H](CC(N)=O)NC(=O)[C@@H]1CCCN1C(=O)[C@H](CO)NC(=O)[C@H](CO)NC(=O)[C@H](Cc1c[nH]cn1)NC(=O)[C@H](CCCNC(=N)N)NC(=O)[C@H](CC(C)C)NC(=O)[C@H](Cc1ccccc1)NC(=O)[C@H](CC(N)=O)NC(=O)[C@H](C)NC(=O)[C@H](CC(C)C)NC(=O)[C@H](CCCNC(=N)N)NC(=O)[C@H](CCC(N)=O)NC(=O)[C@@H](NC(=O)[C@H](C)NC(=O)[C@@H]1CSSC[C@H](NC(=O)[C@H](CCCNC(=N)N)NC(=O)[C@@H](N)CCCCNC(=O)CC[C@H](NC(=O)CCCCCCCCCCCCCCCCCCC(=O)O)C(=O)O)C(=O)N[C@@H](CC(N)=O)C(=O)N[C@@H]([C@@H](C)O)C(=O)N[C@@H](C)C(=O)N[C@@H]([C@@H](C)O)C(=O)N1)[C@@H](C)O)C(=O)N1CCC[C@H]1C(=O)N[C@@H](CO)C(=O)N[C@@H](CO)C(=O)N[C@H](C(=O)N[C@@H](CC(N)=O)C(=O)N[C@H](C(=O)NCC(=O)N[C@@H](CO)C(=O)N[C@@H](Cc1c[nH]cn1)C(=O)N[C@H](C(=O)N[C@@H](Cc1ccc(O)cc1)C(N)=O)[C@@H](C)O)C(C)C)[C@@H](C)O, also called compound 44)	0.275	4750	24	198
K([AEEA-γGlu-C20 diacid])RCNTATCATQRLANFLRHSSPNFGAIPSSTNVGSHTY-NH2 (disulfide 3-8; N-terminus assumed; SMILES CC[C@H](C)[C@H](NC(=O)[C@H](C)NC(=O)CNC(=O)[C@H](Cc1ccccc1)NC(=O)[C@H](CC(N)=O)NC(=O)[C@@H]1CCCN1C(=O)[C@H](CO)NC(=O)[C@H](CO)NC(=O)[C@H](Cc1c[nH]cn1)NC(=O)[C@H](CCCNC(=N)N)NC(=O)[C@H](CC(C)C)NC(=O)[C@H](Cc1ccccc1)NC(=O)[C@H](CC(N)=O)NC(=O)[C@H](C)NC(=O)[C@H](CC(C)C)NC(=O)[C@H](CCCNC(=N)N)NC(=O)[C@H](CCC(N)=O)NC(=O)[C@@H](NC(=O)[C@H](C)NC(=O)[C@@H]1CSSC[C@H](NC(=O)[C@H](CCCNC(=N)N)NC(=O)[C@@H](N)CCCCNC(=O)COCCOCCNC(=O)CC[C@H](NC(=O)CCCCCCCCCCCCCCCCCCC(=O)O)C(=O)O)C(=O)N[C@@H](CC(N)=O)C(=O)N[C@@H]([C@@H](C)O)C(=O)N[C@@H](C)C(=O)N[C@@H]([C@@H](C)O)C(=O)N1)[C@@H](C)O)C(=O)N1CCC[C@H]1C(=O)N[C@@H](CO)C(=O)N[C@@H](CO)C(=O)N[C@H](C(=O)N[C@@H](CC(N)=O)C(=O)N[C@H](C(=O)NCC(=O)N[C@@H](CO)C(=O)N[C@@H](Cc1c[nH]cn1)C(=O)N[C@H](C(=O)N[C@@H](Cc1ccc(O)cc1)C(N)=O)[C@@H](C)O)C(C)C)[C@@H](C)O, also called compound 45)	0.552	10100	17	594

Now from value to binder:

IC50 [1] [nM]	hCTR funct. EC50 (pM) [2] [pM]	Ratio hCT/hAmylin funct. [3]	hAmylin-R funct. EC50 (pM) [3] [pM]	Binder
0.195	899	10.2	88	{C20 diacid-γGlu}-GRCNTATCATQRLANFLRHSSPNFGAIPSSTNVGSNTY-NH2 (disulfide 3-8; SMILES CC[C@H](C)[C@H](NC(=O)[C@H](C)NC(=O)CNC(=O)[C@H](Cc1ccccc1)NC(=O)[C@H](CC(N)=O)NC(=O)[C@@H]1CCCN1C(=O)[C@H](CO)NC(=O)[C@H](CO)NC(=O)[C@H](Cc1c[nH]cn1)NC(=O)[C@H](CCCNC(=N)N)NC(=O)[C@H](CC(C)C)NC(=O)[C@H](Cc1ccccc1)NC(=O)[C@H](CC(N)=O)NC(=O)[C@H](C)NC(=O)[C@H](CC(C)C)NC(=O)[C@H](CCCNC(=N)N)NC(=O)[C@H](CCC(N)=O)NC(=O)[C@@H](NC(=O)[C@H](C)NC(=O)[C@@H]1CSSC[C@H](NC(=O)[C@H](CCCNC(=N)N)NC(=O)CNC(=O)CC[C@H](NC(=O)CCCCCCCCCCCCCCCCCCC(=O)O)C(=O)O)C(=O)N[C@@H](CC(N)=O)C(=O)N[C@@H]([C@@H](C)O)C(=O)N[C@@H](C)C(=O)N[C@@H]([C@@H](C)O)C(=O)N1)[C@@H](C)O)C(=O)N1CCC[C@H]1C(=O)N[C@@H](CO)C(=O)N[C@@H](CO)C(=O)N[C@H](C(=O)N[C@@H](CC(N)=O)C(=O)N[C@H](C(=O)NCC(=O)N[C@@H](CO)C(=O)N[C@@H](CC(N)=O)C(=O)N[C@H](C(=O)N[C@@H](Cc1ccc(O)cc1)C(N)=O)[C@@H](C)O)C(C)C)[C@@H](C)O, also called compound 46) [N^-1-[(4S)-4-carboxy-4-(19-carboxynonadecanoylamino)butanoyl]-Gly[Arg1,Arg17,Pro21,Pro27]-h-amylin]
0.344	1320	6	222	{C20 diacid-γGlu}-GRCNTATCATQRLANFLRHSSPNFGAIPSSTNVGSHTY-NH2 (disulfide 3-8; SMILES CC[C@H](C)[C@H](NC(=O)[C@H](C)NC(=O)CNC(=O)[C@H](Cc1ccccc1)NC(=O)[C@H](CC(N)=O)NC(=O)[C@@H]1CCCN1C(=O)[C@H](CO)NC(=O)[C@H](CO)NC(=O)[C@H](Cc1c[nH]cn1)NC(=O)[C@H](CCCNC(=N)N)NC(=O)[C@H](CC(C)C)NC(=O)[C@H](Cc1ccccc1)NC(=O)[C@H](CC(N)=O)NC(=O)[C@H](C)NC(=O)[C@H](CC(C)C)NC(=O)[C@H](CCCNC(=N)N)NC(=O)[C@H](CCC(N)=O)NC(=O)[C@@H](NC(=O)[C@H](C)NC(=O)[C@@H]1CSSC[C@H](NC(=O)[C@H](CCCNC(=N)N)NC(=O)CNC(=O)CC[C@H](NC(=O)CCCCCCCCCCCCCCCCCCC(=O)O)C(=O)O)C(=O)N[C@@H](CC(N)=O)C(=O)N[C@@H]([C@@H](C)O)C(=O)N[C@@H](C)C(=O)N[C@@H]([C@@H](C)O)C(=O)N1)[C@@H](C)O)C(=O)N1CCC[C@H]1C(=O)N[C@@H](CO)C(=O)N[C@@H](CO)C(=O)N[C@H](C(=O)N[C@@H](CC(N)=O)C(=O)N[C@H](C(=O)NCC(=O)N[C@@H](CO)C(=O)N[C@@H](Cc1c[nH]cn1)C(=O)N[C@H](C(=O)N[C@@H](Cc1ccc(O)cc1)C(N)=O)[C@@H](C)O)C(C)C)[C@@H](C)O, also called compound 47)
0.076	887	8.1	109	K([γGlu-γGlu-C20 diacid])CNTATCATQRLASFLRHSSPNFGAIPSSTNVGPETY-NH2 (disulfide 2-7; N-terminus assumed; SMILES CC[C@H](C)[C@H](NC(=O)[C@H](C)NC(=O)CNC(=O)[C@H](Cc1ccccc1)NC(=O)[C@H](CC(N)=O)NC(=O)[C@@H]1CCCN1C(=O)[C@H](CO)NC(=O)[C@H](CO)NC(=O)[C@H](Cc1c[nH]cn1)NC(=O)[C@H](CCCNC(=N)N)NC(=O)[C@H](CC(C)C)NC(=O)[C@H](Cc1ccccc1)NC(=O)[C@H](CO)NC(=O)[C@H](C)NC(=O)[C@H](CC(C)C)NC(=O)[C@H](CCCNC(=N)N)NC(=O)[C@H](CCC(N)=O)NC(=O)[C@@H](NC(=O)[C@H](C)NC(=O)[C@@H]1CSSC[C@H](NC(=O)[C@@H](N)CCCCNC(=O)CC[C@H](NC(=O)CC[C@H](NC(=O)CCCCCCCCCCCCCCCCCCC(=O)O)C(=O)O)C(=O)O)C(=O)N[C@@H](CC(N)=O)C(=O)N[C@@H]([C@@H](C)O)C(=O)N[C@@H](C)C(=O)N[C@@H]([C@@H](C)O)C(=O)N1)[C@@H](C)O)C(=O)N1CCC[C@H]1C(=O)N[C@@H](CO)C(=O)N[C@@H](CO)C(=O)N[C@H](C(=O)N[C@@H](CC(N)=O)C(=O)N[C@H](C(=O)NCC(=O)N1CCC[C@H]1C(=O)N[C@@H](CCC(=O)O)C(=O)N[C@H](C(=O)N[C@@H](Cc1ccc(O)cc1)C(N)=O)[C@@H](C)O)C(C)C)[C@@H](C)O, also called compound 120)
